The supplement of paper PMC9732359
± gives the uncertainty stated by the source.

Assay: protein stability index of a GFP-peptide fusion (yeast GPS) (PSI 1-4); higher = more stable; sorted into four equal gates, so the index is relative within each strain
Method in brief: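 For each peptide, the protein stability index sums the read frequency in every gate after multiplying it by the gate number. Read frequencies came from plasmids that were PCR-amplified from each gate and Illumina-sequenced, with reads assigned to strains by barcodes. The gates were four equal bins of GFP/Cherry fluorescence ratio applied to mid-log yeast in leucine-free medium carrying a pooled library of tiled 17-residue yeast protein peptides fused downstream of GFP on a Cherry-expressing plasmid.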

## YIEDFLLVIGGNQRKIL [YJR042W/NUP85]
doa10∆
  protein stability index: 1.59 ± 0.051
pdr5∆
  protein stability index: 1.86 ± 0.05
san1∆
  protein stability index: 1.62 ± 0.078
ubr1∆
  protein stability index: 1.71 ± 0.042

## DKLEKVTHDCYRVTLES [RPC34]
doa10∆
  protein stability index: 3.37 ± 0.16
pdr5∆
  protein stability index: 3.3 ± 0.06
san1∆
  protein stability index: 3.25 ± 0.075
ubr1∆
  protein stability index: 3.12 ± 0.085

## VEVCLADLQGSEDHSFR [RPS1A]
doa10∆
  protein stability index: 3.44 ± 0.18
pdr5∆
  protein stability index: 3.27 ± 0.11
san1∆
  protein stability index: 3.21 ± 0.17
ubr1∆
  protein stability index: 3.25 ± 0.19

## KTEDPKGGIIASVGDIL [YML031W/NDC1]
doa10∆
  protein stability index: 2.57 ± 0.067
pdr5∆
  protein stability index: 2.62 ± 0.051
san1∆
  protein stability index: 2.43 ± 0.046
ubr1∆
  protein stability index: 2.12 ± 0.04

## TEVRAEDEAALAKLVST [RPL8A]
doa10∆
  protein stability index: 2.9 ± 0.062
pdr5∆
  protein stability index: 2.93 ± 0.06
san1∆
  protein stability index: 2.59 ± 0.055
ubr1∆
  protein stability index: 2.74 ± 0.048

## FLQRIDFQIDGNIFELL [RRI2]
doa10∆
  protein stability index: 2.63 ± 0.1
pdr5∆
  protein stability index: 2.92 ± 0.071
san1∆
  protein stability index: 2.37 ± 0.07
ubr1∆
  protein stability index: 2.64 ± 0.048

## LTHPKYLNSRIIPTTLE [YML103C/NUP188]
doa10∆
  protein stability index: 2.1 ± 0.035
pdr5∆
  protein stability index: 2.26 ± 0.041
san1∆
  protein stability index: 2.05 ± 0.049
ubr1∆
  protein stability index: 2.25 ± 0.036

## ARNLYIIAVKGSGSRLN [RPL23A]
doa10∆
  protein stability index: 1.27 ± 0.041
pdr5∆
  protein stability index: 1.19 ± 0.044
san1∆
  protein stability index: 1.22 ± 0.088
ubr1∆
  protein stability index: 1.35 ± 0.042

## KNLSLQTGTKPVLKKKA [COR1]
doa10∆
  protein stability index: 2.95 ± 0.07
pdr5∆
  protein stability index: 3.05 ± 0.095
san1∆
  protein stability index: 3.09 ± 0.06
ubr1∆
  protein stability index: 2.79 ± 0.076

## LTVDNLSIAIVGKDTPF [PRE5]
doa10∆
  protein stability index: 2.9 ± 0.052
pdr5∆
  protein stability index: 2.66 ± 0.05
san1∆
  protein stability index: 2.62 ± 0.05
ubr1∆
  protein stability index: 3 ± 0.037

## YDPIKRIDAFNALEHKY [SSN3]
doa10∆
  protein stability index: 2.83 ± 0.058
pdr5∆
  protein stability index: 2.85 ± 0.041
san1∆
  protein stability index: 2.73 ± 0.05
ubr1∆
  protein stability index: 2.77 ± 0.043

## LLGEGESKLKIDPDTKA [RPB11]
doa10∆
  protein stability index: 2.93 ± 0.19
ubr1∆
  protein stability index: 3.14 ± 0.24

## IDLEAPVQIVKRITQIT [RPS20]
doa10∆
  protein stability index: 2.15 ± 0.12
pdr5∆
  protein stability index: 2.23 ± 0.2
san1∆
  protein stability index: 1.78 ± 0.14
ubr1∆
  protein stability index: 2.2 ± 0.094

## VHDKVLEDMVFPTEIVG [RPS7B]
doa10∆
  protein stability index: 2.63 ± 0.13
pdr5∆
  protein stability index: 2.83 ± 0.08
san1∆
  protein stability index: 2.56 ± 0.083
ubr1∆
  protein stability index: 3.06 ± 0.054

## VEWNDQVEKLGKKMEAR [RPN9]
pdr5∆
  protein stability index: 3.28 ± 0.15
san1∆
  protein stability index: 3.29 ± 0.12
ubr1∆
  protein stability index: 3.34 ± 0.14

## TNLQRNVDRLYKLNVRS [NUT2]
doa10∆
  protein stability index: 3.66 ± 0.19
pdr5∆
  protein stability index: 3.62 ± 0.2
san1∆
  protein stability index: 3.01 ± 0.18
ubr1∆
  protein stability index: 3.49 ± 0.073

## SSLLSRLISSKMPGGFT [FAS2]
doa10∆
  protein stability index: 2.51 ± 0.069
pdr5∆
  protein stability index: 2.41 ± 0.08
san1∆
  protein stability index: 2.17 ± 0.094
ubr1∆
  protein stability index: 2.89 ± 0.064

## ISTLQVKLYGREGSSAR [RPB2]
doa10∆
  protein stability index: 2.71 ± 0.17
pdr5∆
  protein stability index: 2.77 ± 0.1
san1∆
  protein stability index: 2.77 ± 0.18
ubr1∆
  protein stability index: 2.8 ± 0.086

## TPGELVTDDPIWMRGHG [RRP4]
doa10∆
  protein stability index: 2.65 ± 0.19
pdr5∆
  protein stability index: 2.9 ± 0.13
ubr1∆
  protein stability index: 3.14 ± 0.15

## LFKNYRFNFISKYFIID [YMR129W/POM152]
doa10∆
  protein stability index: 1.97 ± 0.068
pdr5∆
  protein stability index: 1.41 ± 0.074
san1∆
  protein stability index: 1.32 ± 0.1
ubr1∆
  protein stability index: 1.42 ± 0.061

## VAGGKKALAIFVPVPSL [RPS7A]
doa10∆
  protein stability index: 2.49 ± 0.056
pdr5∆
  protein stability index: 1.53 ± 0.047
san1∆
  protein stability index: 1.7 ± 0.088
ubr1∆
  protein stability index: 1.54 ± 0.043

## PGYVDIVKTSSGNEMPP [RPS19A]
doa10∆
  protein stability index: 2.67 ± 0.19
pdr5∆
  protein stability index: 2.86 ± 0.11
san1∆
  protein stability index: 2.84 ± 0.11
ubr1∆
  protein stability index: 3.11 ± 0.088

## EIQPRANIQLDFPELKP [FAS2]
doa10∆
  protein stability index: 3.13 ± 0.064
pdr5∆
  protein stability index: 3.11 ± 0.063
san1∆
  protein stability index: 3.12 ± 0.076
ubr1∆
  protein stability index: 3.26 ± 0.042

## IREIDVTGGKKALVLFV [RPS7B]
doa10∆
  protein stability index: 1.3 ± 0.085
pdr5∆
  protein stability index: 1.5 ± 0.1
san1∆
  protein stability index: 1.3 ± 0.21
ubr1∆
  protein stability index: 1.23 ± 0.063

## NEKIEKRSDLTGANSIY [UBP6]
doa10∆
  protein stability index: 2.75 ± 0.086
pdr5∆
  protein stability index: 3.01 ± 0.062
san1∆
  protein stability index: 3.06 ± 0.075
ubr1∆
  protein stability index: 3.15 ± 0.068

## MIQEVIVEEDLEPFEAS [FAS2]
doa10∆
  protein stability index: 3.5 ± 0.18
pdr5∆
  protein stability index: 3.16 ± 0.11
san1∆
  protein stability index: 3.53 ± 0.063
ubr1∆
  protein stability index: 3.47 ± 0.099

## LWRNFCRKLSFSDKVNA [ITC1]
doa10∆
  protein stability index: 2.09 ± 0.19
pdr5∆
  protein stability index: 1.76 ± 0.2
san1∆
  protein stability index: 1.14 ± 0.23
ubr1∆
  protein stability index: 1.37 ± 0.094
